# Target: human IL-12 receptor (b1 and b2 chain) (human) (UniProt P42701)
# Experiment: cell-based or functional assay
# human IL-12 receptor (b1 and b2 chain) (human), sequence (Q99665 24-862, chain 2 of 2, other chains not shown): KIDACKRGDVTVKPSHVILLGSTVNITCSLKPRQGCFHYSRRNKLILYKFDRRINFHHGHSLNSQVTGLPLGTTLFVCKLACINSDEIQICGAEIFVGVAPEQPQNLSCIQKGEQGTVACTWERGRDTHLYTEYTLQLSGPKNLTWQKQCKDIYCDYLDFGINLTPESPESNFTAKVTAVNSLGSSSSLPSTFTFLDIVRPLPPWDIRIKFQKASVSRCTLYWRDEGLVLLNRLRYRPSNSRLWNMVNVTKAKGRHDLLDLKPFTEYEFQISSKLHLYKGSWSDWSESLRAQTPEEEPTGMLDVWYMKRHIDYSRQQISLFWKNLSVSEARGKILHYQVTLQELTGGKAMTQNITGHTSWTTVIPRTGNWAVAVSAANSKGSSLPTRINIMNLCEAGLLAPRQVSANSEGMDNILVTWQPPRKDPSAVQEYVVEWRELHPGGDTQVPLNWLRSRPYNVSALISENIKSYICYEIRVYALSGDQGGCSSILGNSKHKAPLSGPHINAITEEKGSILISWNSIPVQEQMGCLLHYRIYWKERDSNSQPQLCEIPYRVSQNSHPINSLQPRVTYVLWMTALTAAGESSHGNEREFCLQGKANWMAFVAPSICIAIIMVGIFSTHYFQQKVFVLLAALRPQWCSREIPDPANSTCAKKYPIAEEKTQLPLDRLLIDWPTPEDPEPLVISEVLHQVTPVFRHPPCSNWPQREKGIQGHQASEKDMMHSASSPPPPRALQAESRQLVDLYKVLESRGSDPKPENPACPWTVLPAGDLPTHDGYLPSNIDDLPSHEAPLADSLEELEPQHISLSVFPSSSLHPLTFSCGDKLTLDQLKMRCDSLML
# Human recombinant IL-12, sequence (P29460 23-328 limits assumed): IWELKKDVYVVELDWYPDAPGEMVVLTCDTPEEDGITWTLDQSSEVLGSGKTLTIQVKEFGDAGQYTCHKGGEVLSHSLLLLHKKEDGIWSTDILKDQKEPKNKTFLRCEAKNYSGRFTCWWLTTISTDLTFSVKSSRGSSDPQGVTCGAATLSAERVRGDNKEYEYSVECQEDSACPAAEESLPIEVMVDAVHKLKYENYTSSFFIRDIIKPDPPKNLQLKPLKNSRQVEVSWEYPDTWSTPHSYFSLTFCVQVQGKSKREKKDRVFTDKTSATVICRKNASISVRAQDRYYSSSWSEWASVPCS
# Human recombinant IL-12, sequence (P29459 23-219 limits assumed): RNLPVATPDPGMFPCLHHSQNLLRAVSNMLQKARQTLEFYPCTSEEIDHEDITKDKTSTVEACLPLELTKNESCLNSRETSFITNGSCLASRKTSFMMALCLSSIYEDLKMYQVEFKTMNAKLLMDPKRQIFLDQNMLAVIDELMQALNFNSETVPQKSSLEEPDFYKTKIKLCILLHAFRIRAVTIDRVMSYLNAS
substance,measurement,value
Human recombinant IL-12 (from UniProt P29460 23-328; P29459 23-219) (ligand),"E-max (Maximal response), p-STAT4 positive cells, CD8+ T cells and NK cells",60 to 80%
same,"EC50 of p-STAT4 induction in human PBMC, CD4+ T cells",72 pM
same,"EC50 of p-STAT4 induction in human PBMC, CD8+ T cells",45 pM
same,"EC50 of p-STAT4 induction in human PBMC, NK cells",166 pM
